# Experimental data: patent US5770430, “Cellular injury response element and uses thereof” (Research Development Foundation)
# B1: CIRE (GADD153 -74 to -35) (dsDNA)
# DNA 1: AGGCTCCTGGGTCCCGCCCCCCAAAAGAGGGGACGGGCC
# DNA 2: GGCCCGTCCCCTCTTTTGGGGGGCGGGACCCAGGAGCCT
# Target: Sp1 (Homo sapiens, UniProt P08047 P08047:2-785)
# Test: EMSA; poly dI/dC, Mg, Zn, room temperature
# Settings: label: 32P
# Description: 50,000 CPM of the cellular injury response element, 1 μg poly dI/dC, 10 μg nuclear extract or 2 footprinting units of human Sp1 protein (Promega, Madison, Wis.) were suspended in 12.5 mM HEPES, pH 7.8, 50 mM KCl, 6.25 mM MgCl_2, 5 μM ZnSO_4, 10% glycerol, and 0.05% Nonidet P-40 and incubated for 30 minutes at room temperature. The bands were separated on a 4% polyacrylamide/0.5 X TBE (45 mM Tris-borate, […]) gel, dried and were visualized using the Molecular Imager System (Bio-Rad, Hercules, Calif.). Supershift assays were performed as above with the addition of […] anti-Sp1 antibody (PEP2, Santa Cruz Biotechnology, Inc.) or non-specific rabbit antibody to the reaction mixture after the 30 minute incubation and incubating for an additional 30 minutes.
# Nuclear extracts were incubated with ^32P-labeled cellular injury response element and separated on a 0.5X TBE/4% polyacrylamide gel. […] However, no shift was observed when nuclear extracts were incubated with the Sp 1-mutant cellular injury response element (labeled A in FIGS. 7 and 8; a non-specifically shifted band is labeled A in both FIGS. 7 and 8). Thus, the binding of the protein responsible for the gel shift of the cellular injury response element is dependent upon the presence of functional Sp1 site within the cellular injury response element.
# Sp1, sequence (P08047 2-785, one chain of several): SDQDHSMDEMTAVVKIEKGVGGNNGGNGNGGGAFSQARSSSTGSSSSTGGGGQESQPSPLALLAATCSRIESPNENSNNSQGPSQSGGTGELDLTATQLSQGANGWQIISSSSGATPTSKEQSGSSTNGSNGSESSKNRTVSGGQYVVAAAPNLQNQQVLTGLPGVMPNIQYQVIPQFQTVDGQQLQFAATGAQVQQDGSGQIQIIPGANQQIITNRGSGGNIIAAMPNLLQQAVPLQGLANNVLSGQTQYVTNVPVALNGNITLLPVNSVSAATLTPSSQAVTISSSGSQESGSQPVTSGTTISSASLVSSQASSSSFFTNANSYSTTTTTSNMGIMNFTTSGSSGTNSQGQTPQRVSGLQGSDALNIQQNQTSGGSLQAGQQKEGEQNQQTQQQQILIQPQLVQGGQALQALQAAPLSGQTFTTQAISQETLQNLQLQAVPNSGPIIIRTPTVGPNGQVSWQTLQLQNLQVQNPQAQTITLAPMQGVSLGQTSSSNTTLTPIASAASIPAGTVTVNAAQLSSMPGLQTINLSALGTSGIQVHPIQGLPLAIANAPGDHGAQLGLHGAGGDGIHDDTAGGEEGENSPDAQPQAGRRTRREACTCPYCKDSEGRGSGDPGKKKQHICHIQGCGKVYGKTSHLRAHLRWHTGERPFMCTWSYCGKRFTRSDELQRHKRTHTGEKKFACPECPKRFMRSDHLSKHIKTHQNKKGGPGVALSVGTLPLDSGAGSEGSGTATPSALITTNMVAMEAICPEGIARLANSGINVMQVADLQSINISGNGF
binder,measurement,value
B1,binding result,binds
